How the values were obtained:
RbAB = biological target: T1, RbAB (Homo sapiens, UniProt P06400); assay: Isothermal titration calorimetry of E2F constructs binding to RbAB; details: ITC, binding to pRbAB
T1 construct: residues 372 to 589 of the A domain and 636 to 787 of the B domain; GST (with Prescission protease site) (N, cleaved yes); engineered thrombin site (LVPRGS) at the A-domain end of the A-B linker (C, cleaved yes); engineered thrombin site (LVPRGS) at the B-domain end of the A-B linker (N, cleaved yes); made in house; host or cells: E. coli
T1 sequence (P06400 372-589): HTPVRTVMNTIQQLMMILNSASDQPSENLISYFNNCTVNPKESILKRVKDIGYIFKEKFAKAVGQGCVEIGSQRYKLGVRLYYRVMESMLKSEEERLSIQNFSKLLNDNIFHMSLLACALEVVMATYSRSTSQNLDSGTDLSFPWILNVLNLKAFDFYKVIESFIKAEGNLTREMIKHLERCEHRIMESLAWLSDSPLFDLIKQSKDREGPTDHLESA
T1 sequence (P06400 636-787): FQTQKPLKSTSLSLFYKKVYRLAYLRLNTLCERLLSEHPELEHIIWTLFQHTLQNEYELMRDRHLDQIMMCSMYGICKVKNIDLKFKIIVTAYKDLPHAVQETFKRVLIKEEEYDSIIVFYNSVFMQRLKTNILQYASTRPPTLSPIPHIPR
Protocol: The panel represents the experiment where E2F(243-437) is titrated into RbAB.
(B) Summary of dissociation constants obtained by ITC measurements. The quoted errors are those produced by fitting the data to a two-state model. For the interaction of E2F(243-437) to RbAB and RbABC the affinities are too high to measure reliably and we have therefore quoted the upper limits of the dissociation constants.
(§1) Binding of the various E2F constructs to RbAB and RbABC was measured by isothermal titration calorimetry using a MicroCal Omega VP-ITC machine (MicroCal Inc., Northampton, USA). The E2F constructs at a concentration between 100-150 μM were titrated into 12-15 μM Rb at a temperature of 22° C. Proteins were dialysed against 50 mM Tris pH 7.6, 100 mM NaCl and 1 mM TCEP. After subtraction of the dilution heats, calorimetric data was analysed using the evaluation software MicroCal Origin v5.0 (MicroCal Software Inc.). For all of the titrations, the stoichiometry of ligand binding to Rb was very close to 1.0. For E2F(243-437) binding to Rb, the binding affinity and the heat change associated with binding were such that we could only establish that binding was tighter than 10 nM.

RbAB and RbABC = biological target: T2, RbAB and RbABC (Homo sapiens, UniProt P06400); assay: Competition experiment (Ni column, SDS-PAGE): partition of E2F(243-437) between RbAB and RbABC; format: binding; details: His6-RbABC against non-tagged RbAB, proteins mixed at 40 μM
T2 construct: non-tagged RbAB (residues 372-787); His6-RbABC (RESIDUES 380-929); made in house; host or cells: E. coli
T2 sequence (P06400 372-787 limits assumed): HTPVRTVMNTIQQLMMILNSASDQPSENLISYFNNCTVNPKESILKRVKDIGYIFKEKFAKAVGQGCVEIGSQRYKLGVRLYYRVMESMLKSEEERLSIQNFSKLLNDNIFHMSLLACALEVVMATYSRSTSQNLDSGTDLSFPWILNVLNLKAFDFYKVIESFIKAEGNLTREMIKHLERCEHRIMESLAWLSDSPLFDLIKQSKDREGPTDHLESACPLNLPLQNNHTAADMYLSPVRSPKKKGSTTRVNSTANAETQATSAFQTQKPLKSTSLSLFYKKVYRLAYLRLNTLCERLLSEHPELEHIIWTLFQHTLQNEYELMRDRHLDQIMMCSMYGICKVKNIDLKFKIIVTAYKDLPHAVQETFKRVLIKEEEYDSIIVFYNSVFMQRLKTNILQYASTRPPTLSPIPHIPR
T2 sequence (P06400 380-928 limits assumed): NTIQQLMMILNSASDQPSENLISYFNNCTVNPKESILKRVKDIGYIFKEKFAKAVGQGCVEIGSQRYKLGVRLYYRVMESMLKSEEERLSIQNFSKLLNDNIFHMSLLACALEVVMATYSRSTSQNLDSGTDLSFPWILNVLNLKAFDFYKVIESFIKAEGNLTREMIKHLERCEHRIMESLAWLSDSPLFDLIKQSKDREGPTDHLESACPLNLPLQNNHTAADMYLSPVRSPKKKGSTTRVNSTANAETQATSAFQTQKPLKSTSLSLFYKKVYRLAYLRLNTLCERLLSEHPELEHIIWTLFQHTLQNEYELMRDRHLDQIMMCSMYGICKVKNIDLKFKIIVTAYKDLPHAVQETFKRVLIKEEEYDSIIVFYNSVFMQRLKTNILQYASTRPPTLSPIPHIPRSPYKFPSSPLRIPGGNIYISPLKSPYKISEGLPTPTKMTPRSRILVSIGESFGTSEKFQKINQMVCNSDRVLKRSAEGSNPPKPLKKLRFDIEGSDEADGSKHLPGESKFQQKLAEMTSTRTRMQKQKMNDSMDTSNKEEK
Protocol: as §1
The proteins used in these experiments were His6-RbABC (RESIDUES 380-929); MW 66.07 kDa, non-tagged RbAB (residues 372-787); MW 48.67 KDa, are His6-RbAB (residues 376-792); MW 49.86 KDa, E2F(243-437); MW 21.45 KDa HPV E7 (residues 17-98); MW 9.38 KDa and E2F(409-426); MW 2.12 KDa. Protein concentrations were carefully determined by u.v. spectroscopy and confirmed by ITC titrations. The small acidic E2F proteins stain much weaker than Rb with Coomassie on SDS-PAGE. For all gel lanes contained a final RbAB concentration of ca. 7 μM. […]

B1: E2F(243-437): Recombinant human E2F1(243-437) expressed in E. coli (protein, UniProt Q01094 243-437, looked up, fragment)
chain: LAYVTCQDLRSIADPAEQMVMVIKAPPETQLQAVDSSENFQISLKSKQGPIDVFLCPEETVGGISPGKTPSQEVTSEEENRATDSATIVSPPPSSPPSSLTTDPSQSLLSLEQEPLLSRMGSLRAPVDEDRLSPLVAADSLLEHVREDFSGLLPEEFISLSPPHEALDYHFGLEEGEGIRDLFDCDFGDLTPLDF
binds stronger than either of the two shorter E2F fragments (RbAB): at least 16 fold | partitioning between the two pRb species (RbAB and RbABC): approximately equal partitioning

From patent US20060234906A1, “Structure of a complex of retinoblastoma protein bound to e2f, and uses thereof” (priority 2002, published 2006)
